From patent US7282556 (EMORY UNIVERSITY, dated 2007)
Bridges are numbered along the chain shown (N, C = ends). Where no end group is shown, it is not given here.

B1: JAM-AP: extracellular domain of junctional adhesion molecule (JAM) fused to alkaline phosphatase (other, UniProt Q9Y624 28-238, looked up)
chain: SVTVHSSEPEVRIPENNPVKLSCAYSGFSSPRVEWKFDQGDTTRLVCYNNKITASYEDRVTFLPTGITFKSVTREDTGTYTCMVSEEGGNSYGEVKVKLIVLVPPSKPTVNIPSSATIGNRAVLTCSEQDGSPPSEYTWFKDGIVMPTNPKSTRAFSNSSYVLNPTTGELVFDPLSASDTGEYSCEARNGYGTPMTSNAVRMEAVERNVGV
notes: extracellular domain; Control AP fusion protein; not shown: alkaline phosphatase (as in CD47-AP)

How the values were obtained:
[1] = biological target: T1, SIRPα1-GST: extracellular domain of SIRPα1 fused to GST (UniProt P78324 31-373); test: plate binding assay, JAM-AP and SIRPα-GST
T1 construct: extracellular domain; Produced in 293E cells as in Seiffert et al; also called SIRPα-GST; SIRP-GST; not shown: glutathione S-transferase (GST)
T1 sequence (P78324 31-373): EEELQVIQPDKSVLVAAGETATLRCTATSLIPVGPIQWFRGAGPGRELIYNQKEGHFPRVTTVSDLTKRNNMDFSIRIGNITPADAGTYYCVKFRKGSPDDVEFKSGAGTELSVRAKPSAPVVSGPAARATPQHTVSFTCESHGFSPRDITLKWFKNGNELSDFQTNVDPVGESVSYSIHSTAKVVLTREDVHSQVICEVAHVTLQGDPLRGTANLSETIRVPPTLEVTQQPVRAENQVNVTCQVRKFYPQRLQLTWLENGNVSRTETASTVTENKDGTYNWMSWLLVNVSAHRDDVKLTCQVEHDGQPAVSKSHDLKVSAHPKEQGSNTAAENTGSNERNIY

C5/D5 Fab = biological target: T2, C5/D5 Fab; test: competition ELISA: C5/D5 Fab (1 µg/ml) on coated purified CD47 with increasing peptide
T2 construct: Prepared by papain digestion of C5/D5; also called C5/D5 Fab fragment
Procedure: Figure 5: FIG. 5 is a graph that illustrates the effect of synthetic peptide C5/D5.1 ([…]) (SEQ. ID NO: 2) and control peptide C5/D5.4 ([…]) (SEQ. ID NO: 34), C5/D5.11 ([…]) (SEQ. ID NO: 36) and C5/D5.12 ([…]) (SEQ. ID NO: 6) on binding of C5/D5 Fab to CD47. CD47 was purified from human PMN or RBC as previously described (Liu, et al., Journal of Biological Chemistry, 277(12): 10028-36, 2002). The experiments were performed by coating microtiter plates with purified CD47 (in 1% octylglucoside containing buffer, used as 1:50 dilution) for 2 hour (hr). After blocking, C5/D5 Fab (1 µg/ml) was added without or with increasing amount of peptides. C5/D5 Fab binding was detected by a peroxidase conjugated goat anti-mouse secondary antibody. The data represent the mean and the standard deviation of triplicate wells.
To confirm that peptide C5/D5.1 simulates the natural epitope of CD47 recognized by mAb C5/D5, experiments were performed to test if this peptide can compete with CD47 in binding to C5/D5. Purified human CD47 from PMN and RBC was used to coat microtiter plates followed by incubation with C5/D5 Fab (1 μg/ml) either in the absence or presence of increasing amount C5/D5.1 or other control peptides. […] In contrast, control peptides, including C5/D5.11 (SEQ ID NO:36) and C5/D5.12 (SEQ ID NO:6) had no inhibition at concentrations up to 10 mM (FIG. 5). […]

[2] = biological target: T1, SIRPα1-GST: extracellular domain of …; test: direct binding of synthetic peptide

Row | Binder | binding result [2] | further results
1 | B1 |  | binding result [1]: no binding
2 | CERVIGTGWVRC (disulfide 1-12 (inferred)) [synthetic peptide C5/D5.1 (CERVIGTGWVRC)] |  | IC50 (C5/D5 Fab): 3.8 mM
3 | SSAKIEVSQLLK [linear CD47 peptide comprising SSAKIEVSQLLK (aa82-93 of SEQ ID NO: 9)] | no binding | 
4 | EVTELTREG [linear CD47 peptide comprising EVTELTREG (aa115-123 of SEQ ID NO: 9)] | no binding | 
